Laboratory results from patent US20070049518A1, “Novel method of treatment of inflammatory skin conditions” (priority 2005, published 2007).
Like-named read-outs stand apart in the source and are kept apart here.

Key:
[1] = system: Human skin epidermal keratinocytes; test: Keratinocyte activation, IL-8 production; assay type: cell-based; settings: 48 hours, aureolysin 50 μg/ml
Description: Activated keratinocytes produce IL-8, a proinflammatory chemokine. Many bacterial products cause the activation of keratinocytes. Aureolysin may be evaluated for its effects on IL-8 production by keratinocytes. Human skin epidermal keratinocytes (TCS Cellworks) are maintained as per instructions. Proliferating cultures are trypsinised, harvested, treated with a trypsin inhibitor and resuspended in growth medium at approximately 50,000 cells/well, to provide confluent monolayers in 96 well plates. Cells are incubated overnight at 37° C. at 5% CO2 to allow recovery, the spent medium aspirated from the wells and replaced with fresh growth medium. The cells are incubated at 37° C. at 5% CO2 for a further 24 or 48 hours with aureolysin or buffer control.
The supernatants are removed from each well and the concentration of IL-8 is determined using a human IL-8 ELISA development kit from R&D systems (Catalog Number: DY208) using the manufacturers instructions.
In these experiments, the cells are incubated at 37° C. at 5% CO2 for 48 hours with aureolysin or buffer control. Poly IC and lipoteichoic acid (LTA), which stimulate IL-8 production in keratinocytes were used as positive controls.

[2] = target: T1, proenzyme of human rheumatoid synovial fibroblast collagenase (proMMP-1) (Homo sapiens, UniProt P03956); assay type: biochemical; settings: for α1-chain ¾ - length product: aureolysin 3 μg/ml and/or 1 mM APMA
T1 construct: the proenzyme of human rheumatoid synovial fibroblast collagenase (Calbiochem); purchased Calbiochem; host or cells: human rheumatoid synovial fibroblasts (as the product's name says)
T1 sequence (P03956 20-469): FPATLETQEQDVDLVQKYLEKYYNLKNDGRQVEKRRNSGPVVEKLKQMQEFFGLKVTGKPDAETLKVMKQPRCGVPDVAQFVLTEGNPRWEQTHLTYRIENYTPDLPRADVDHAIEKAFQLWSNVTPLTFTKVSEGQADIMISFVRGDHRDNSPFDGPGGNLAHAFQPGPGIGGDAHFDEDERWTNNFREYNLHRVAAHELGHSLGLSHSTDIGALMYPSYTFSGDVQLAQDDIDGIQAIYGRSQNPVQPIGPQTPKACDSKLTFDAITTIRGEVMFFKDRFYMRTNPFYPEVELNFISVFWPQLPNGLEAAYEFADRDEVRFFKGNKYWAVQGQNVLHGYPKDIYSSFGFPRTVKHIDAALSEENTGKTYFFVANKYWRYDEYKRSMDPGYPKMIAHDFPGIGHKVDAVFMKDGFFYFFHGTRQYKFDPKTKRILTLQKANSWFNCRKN
Method: (§1) Collagenase activity in the samples was then determined by incubation at 25° C. in TCNB containing 0.1 μg/ml (pro)MMP-1 and 0.16 mg/ml porcine type I collagen (MD Biosciences).

[3] = system: proenzyme of human rheumatoid synovial fibroblast collagenase (proMMP-1); assay type: biochemical; settings: aureolysin alone±APMA
Method: as §1

single chain pro-uPA = test: Activation of pro-uPA by aureolysin; assay type: biochemical; settings: Expt. 1, 2.5 h

Substance: aureolysin: metalloprotease (EC 3.4.24.29) secreted by Staphylococcus aureus, single chain of 301 amino acids
- IL-8 ± SE [1]: 687 pg/mL
- IL-8 ± SE ([1]; listed as Aureolysin): 687 ± 0.7 pg/mL
- α1-chain ¾ - length product ([2]; Time 0 h): 0 arbitrary units
- α1-chain ¾ - length product ([2]; Time 0.5 h): 1709 arbitrary units
- α1-chain ¾ - length product ([2]; Time 1 h): 3726 arbitrary units
- α1-chain ¾ - length product ([2]; Time 1.5 h): 5115 arbitrary units
- α1-chain ¾ - length product ([2]; Time 2 h): 8742 arbitrary units
- α1-chain ¾ - length product ([2]; Time 3 h): 12718 arbitrary units
- α1-chain ¾ - length product ([2]; Time 4 h): 16882 arbitrary units
- α1-chain ¾ - length product ([2]; Time 5 h): 17558 arbitrary units
- α1-chain ¾ - length product ([2]; Time 6 h): 19436 arbitrary units
- Relative rate of collagen cleavage ([2]; relative to untreated control (MMP-1 alone = 1)): 3
- collagenase activity of control incubations without proMMP-1 (in words) [3]: no activity
- Urokinase activity after pro-uPA activation (single chain pro-uPA; aureolysin 0.1 μg/ml, MES pH 5.6): 2.31 A405/0.5 h/μg
- Urokinase activity after pro-uPA activation (single chain pro-uPA; aureolysin 0.1 μg/ml, Tris-HCl pH 7.5): 0.65 A405/0.5 h/μg
- Urokinase activity after pro-uPA activation (single chain pro-uPA; aureolysin 0.3 μg/ml, MES pH 5.6): 3.76 A405/0.5 h/μg
- Urokinase activity after pro-uPA activation (single chain pro-uPA; aureolysin 0.3 μg/ml, Tris-HCl pH 7.5): 1.43 A405/0.5 h/μg
- Urokinase activity after pro-uPA activation (single chain pro-uPA; aureolysin 1 μg/ml, MES pH 5.6): 4.68 A405/0.5 h/μg
- Urokinase activity after pro-uPA activation (single chain pro-uPA; aureolysin 1 μg/ml, Tris-HCl pH 7.5): 3.29 A405/0.5 h/μg
